# Results published in patent US20180244725.
# T1: R5 peptide
# T1 chain: SSKKSGSYSGSKGSKRRIL
# B1: N-myrisotyltransferase 1 (NMT1) (protein)
# chain: MADESETAVKPPAPPLPQMMEGNGNGHEHCSDCENEEDNSYNRGGLSPANDTGAKKKKKKQKKKKEKGSETDSAQDQPVKMNSLPAERIQEIQKAIELFSVGQGPAKTMEEASKRSYQFWDTQPVPKLGEVVNTHGPVEPDKDNIRQEPYTLPQGFTWDALDLGDRGVLKELYTLLNENYVEDDDNMFRFDYSPEFLLWALRPPGWLPQWHCGVRVVSSRKLVGFISAIPANIHIYDTEKKMVEINFLCVHKKLRSKRVAPVLIREITRRVHLEGIFQAVYTAGVVLPKPVGTCRYWHRSLNPRKLIEVKFSHLSRNMTMQRTMKLYRLPETPKTAGLRPMETKDIPVVHQLLTRYLKQFHLTPVMSQEEVEHWFYPQENIIDTFVVENANGEVTDFLSFYTLPSTIMNHPTHKSLKAAYSFYNVHTQTPLLDLMSDALVLAKMKGFDVFNALDLMENKTFLEKLKFGIGDGNLQYYLYNWKCPSMGAEKVGLVLQ
# Target: T1, R5 peptide
protein,measurement,value
B1,myristoylation of R5 (LC-MS time course),A time course showing the incorporation of one myristoyl group was determined by LC-MS
